Tested on: peptide library, one residue held at a place counted from the S/T acceptor
Experiment: relative phosphorylation of the sub-library (ratio to the mean residue at this position); higher = residue favoured
How it was run: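 Relative sub-library phosphorylation, a ratio to the mean residue at that position, was obtained by phosphorimaging and densitometry of spots on streptavidin membranes. Before capture, purified recombinant kinases were incubated for 90 min under kinase-specific conditions with 50 μM biotinylated degenerate peptide sub-libraries and 50 μM ATP spiked with γ-32P-ATP. Each sub-library fixed one residue at one position around a central Ser/Thr.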

TBK1, construct: Full length, human, sequence (Q9UHD2 whole entry, looked up): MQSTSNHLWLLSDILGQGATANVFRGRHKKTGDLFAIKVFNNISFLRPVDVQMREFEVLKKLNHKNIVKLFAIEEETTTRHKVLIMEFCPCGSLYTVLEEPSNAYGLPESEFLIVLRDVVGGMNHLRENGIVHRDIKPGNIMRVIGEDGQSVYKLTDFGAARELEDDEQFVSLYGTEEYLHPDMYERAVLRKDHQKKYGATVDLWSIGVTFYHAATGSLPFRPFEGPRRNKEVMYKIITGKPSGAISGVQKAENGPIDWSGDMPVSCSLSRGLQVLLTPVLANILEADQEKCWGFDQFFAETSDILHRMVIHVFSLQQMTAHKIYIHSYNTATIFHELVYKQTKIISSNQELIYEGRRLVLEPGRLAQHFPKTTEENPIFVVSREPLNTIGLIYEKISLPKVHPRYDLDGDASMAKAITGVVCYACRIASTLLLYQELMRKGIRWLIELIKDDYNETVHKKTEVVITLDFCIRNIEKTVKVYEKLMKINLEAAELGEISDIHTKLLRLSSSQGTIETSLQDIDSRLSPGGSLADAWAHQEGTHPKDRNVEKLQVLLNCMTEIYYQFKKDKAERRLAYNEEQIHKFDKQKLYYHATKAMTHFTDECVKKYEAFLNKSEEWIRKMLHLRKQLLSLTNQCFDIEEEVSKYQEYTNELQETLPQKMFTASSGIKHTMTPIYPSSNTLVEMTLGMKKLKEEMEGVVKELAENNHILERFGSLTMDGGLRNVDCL
NEK3, construct: Full length, human, sequence (P51956 whole entry, looked up): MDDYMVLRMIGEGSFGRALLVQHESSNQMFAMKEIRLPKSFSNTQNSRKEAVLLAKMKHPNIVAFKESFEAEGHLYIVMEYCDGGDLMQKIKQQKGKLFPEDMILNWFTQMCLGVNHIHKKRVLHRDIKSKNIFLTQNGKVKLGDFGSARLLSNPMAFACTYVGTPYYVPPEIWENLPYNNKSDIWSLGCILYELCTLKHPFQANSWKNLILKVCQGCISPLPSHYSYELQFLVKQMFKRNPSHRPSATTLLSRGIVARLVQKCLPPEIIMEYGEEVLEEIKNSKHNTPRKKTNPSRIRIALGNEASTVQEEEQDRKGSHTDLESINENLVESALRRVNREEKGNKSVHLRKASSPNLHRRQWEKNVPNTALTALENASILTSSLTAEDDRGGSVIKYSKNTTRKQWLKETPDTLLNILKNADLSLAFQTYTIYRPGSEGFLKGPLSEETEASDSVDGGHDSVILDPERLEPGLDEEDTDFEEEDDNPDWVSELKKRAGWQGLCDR
CDK8, construct: Full length*, human, sequence (P49336 whole entry, looked up): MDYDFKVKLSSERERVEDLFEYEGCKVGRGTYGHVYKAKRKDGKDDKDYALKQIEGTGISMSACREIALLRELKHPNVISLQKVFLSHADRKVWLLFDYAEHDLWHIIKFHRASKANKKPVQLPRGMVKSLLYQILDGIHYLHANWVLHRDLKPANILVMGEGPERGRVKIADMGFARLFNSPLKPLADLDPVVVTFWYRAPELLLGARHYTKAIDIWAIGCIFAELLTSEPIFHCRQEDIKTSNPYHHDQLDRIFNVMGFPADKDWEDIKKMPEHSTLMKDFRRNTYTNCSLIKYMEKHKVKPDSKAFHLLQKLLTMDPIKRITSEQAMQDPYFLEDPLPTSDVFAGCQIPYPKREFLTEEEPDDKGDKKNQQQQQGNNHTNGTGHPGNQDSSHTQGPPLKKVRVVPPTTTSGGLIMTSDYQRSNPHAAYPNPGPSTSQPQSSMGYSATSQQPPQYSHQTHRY

CDK8, construct: Full length*, human (from UniProt P49336)
relative phosphorylation
Details	at +1	at +2	at +3	at +4	at -1	at -2	at -3	at -4	at -5
A fixed	0.287	1.26	1.05	1.01	1.02	1.65	1.08	0.959	0.86
D fixed	0.179	0.789	0.841	1.19	0.791	0.579	0.887	1.18	1.4
E fixed	0.16	0.729	0.743	0.882	0.556	0.602	0.934	1.21	1.32
F fixed	0.26	0.84	0.734	0.893	1.03	0.43	1.04	1.1	1.33
G fixed	0.807	1.31	1.47	1.15	1.47	0.849	1.29	0.931	0.883
H fixed	0.408	1.03	1.12	1.06	0.982	0.643	0.947	1.08	1.01
I fixed	0.463	0.891	0.735	1.04	0.286	1.06	0.684	0.944	0.864
K fixed	0.239	1.11	0.649	0.698	1.03	0.309	0.592	0.842	0.747
L fixed	0.291	1.02	0.694	0.949	1.04	0.936	0.683	0.91	0.911
M fixed	0.36	1.12	1.02	0.955	1.44	1.05	1.48	1.05	0.78
N fixed	0.51	0.899	1.39	0.862	0.866	0.697	1.25	0.836	0.887
P fixed	10.9	0.801	1.91	1.09	1.37	4.62	1.23	0.923	0.896
Q fixed	0.369	1.13	1.03	0.977	1.02	0.876	1.16	0.941	0.917
R fixed	0.231	1.26	0.878	0.847	1.28	0.413	0.631	0.829	0.858
V fixed	1	0.807	0.977	1.09	0.559	1.31	0.698	0.847	0.813
W fixed	0.306	1.02	0.802	1.38	1.19	0.505	1.31	1.21	0.872
Y fixed	0.241	0.976	0.942	0.926	1.07	0.466	1.09	1.21	1.65
pThr fixed	0.423	0.473	0.694	0.882	0.312	0.668	0.74	1.11	0.898
pTyr fixed	0.43	0.934	0.886	0.851	0.758	0.614	0.745	1.13	1.11

NEK3, construct: Full length, human (from UniProt P51956)
relative phosphorylation
Details	at +1	at +2	at +3	at +4	at -1	at -2	at -3	at -4	at -5
A fixed	0.842	0.788	1.09	0.919	1.02	0.977	1.09	1.16	1.06
D fixed	0.145	0.299	0.257	0.346	0.588	0.551	0.343	0.456	0.653
E fixed	0.12	0.323	0.219	0.321	0.496	0.632	0.36	0.511	0.632
F fixed	1.67	0.786	1.1	0.796	0.841	1.37	1.98	1.43	1.05
G fixed	0.687	1.41	1.42	1.64	1.33	1.45	1.51	1.28	1.25
H fixed	1.13	1.45	1.07	1.35	1.45	1.21	1.11	1.03	1.17
I fixed	1.65	0.967	1.12	0.984	0.629	0.749	0.642	0.798	0.97
K fixed	0.579	1.4	1.07	1.24	1.07	0.866	0.478	1.02	1.1
L fixed	1.29	0.674	1.22	0.841	0.865	1.19	1.65	1.09	0.959
M fixed	1.94	1.09	1.05	0.982	1.59	1.42	1.87	1.2	1.27
N fixed	0.416	1.21	0.721	1.05	1.03	0.903	0.657	0.848	1.02
P fixed	0.351	0.719	1.2	1.38	0.204	0.259	0.495	0.597	0.821
Q fixed	0.719	0.826	0.873	0.769	0.846	0.826	0.561	0.867	0.74
R fixed	0.807	2.17	1.28	1.6	2	0.822	1.05	1.05	1.54
V fixed	1.66	0.904	1.01	0.768	0.739	0.734	0.486	0.823	0.7
W fixed	1.56	0.774	1.27	1.08	0.938	1.49	1.42	1.79	0.993
Y fixed	1.42	1.21	1.05	0.958	1.36	1.55	1.28	1.05	1.07
pThr fixed	0.188	0.183	0.26	0.166	0.146	0.255	0.386	0.57	0.612
pTyr fixed	0.165	0.278	0.254	0.254	0.414	0.612	0.399	0.446	0.642

TBK1, construct: Full length, human (from UniProt Q9UHD2)
relative phosphorylation
Details	at +1	at +2	at +3	at +4	at -1	at -2	at -3	at -4	at -5
A fixed	0.37	1.01	0.9	0.857	1.09	0.967	1.04	1.04	1.06
D fixed	0.296	0.857	0.879	0.864	0.882	1.15	1.27	1.29	1.16
E fixed	0.214	0.903	0.869	0.945	0.855	1.06	1.32	1.13	1.18
F fixed	1.85	1.22	1.31	1.23	0.885	1.33	0.781	0.789	0.923
G fixed	0.548	0.851	0.974	0.897	0.814	1.12	1.56	1.19	1.19
H fixed	0.557	1.09	1.16	1.05	1.11	1.06	1.08	1.04	1.21
I fixed	2.31	1.23	0.75	1.12	0.853	0.589	0.68	0.789	0.771
K fixed	0.249	0.616	0.555	0.768	1.13	0.613	0.985	1.07	1.19
L fixed	3.03	1.22	1.04	1.09	1.06	0.864	0.568	0.903	0.805
M fixed	2.85	1.27	1.1	1.14	1.29	1.16	0.928	0.998	0.8
N fixed	0.349	1.02	0.962	0.876	0.957	0.883	1.09	1.2	1.09
P fixed	0.178	0.765	1.16	1.04	1.26	1.83	1.24	1.08	0.981
Q fixed	0.333	1.06	0.884	0.921	1.05	0.928	1.24	1.03	1.03
R fixed	0.255	0.858	0.602	0.743	1.05	0.666	1	0.997	1.12
V fixed	0.957	1.3	0.974	0.889	0.834	0.658	0.7	0.721	0.784
W fixed	1.41	0.804	1.33	1.36	0.75	0.748	0.711	0.877	0.857
Y fixed	1.24	0.931	1.54	1.22	1.12	1.39	0.812	0.861	0.859
pThr fixed	0.465	0.783	0.625	0.849	0.582	0.817	1.14	1.01	1.06
pTyr fixed	0.494	0.785	0.848	0.779	1.07	1.46	1.32	1.03	1.11
